Measured values published in patent US20260116960A1 (SHANGHAI HONGCHENG BIOPHARMACEUTICAL, published 2026).

Tests used:
[1] = target: T1, human VEGF165-his protein (Acro, Catalog No. VE5-H5248) (human, UniProt P15692-4 27-191); test: ELISA, plate coated with human VEGF165-his
T1 construct: Bought protein; also called hVEGF165-His; VEGFA; not shown: his tag
Experimental: ELISA was used to determine the activity of the trispecific antibodies binding to the PD-1 protein: 1 μg/mL human PD-1 protein (Acro, Catalog No.: PD1-H5221) was used to coat a high-adsorption 96-well ELISA plate and incubated at 4° C. overnight. On the next day, the plate was washed three times with PBST solution and blocked with 1% BSA-PBS solution at 37° C. for 1 hour. At the same time, 3-fold gradient dilutions of the antibody were prepared with 1% BSA-PBS solution, with a starting concentration of 10 nM. The antibodies of each gradient concentration were added to the blocked 96-well ELISA plate at 100 µL/well in triplicate and incubated at 37° C. for 1 hour. The plate was then washed three times with 0.05% PBST solution, and 100 μL/well of HRP-labeled secondary antibody (Sigma, Catalog No.: A0170) diluted at 1:5000 was added to the ELISA plate and incubated at 37° C. for 1 hour. The plate was washed three times with 0.05% PBST solution and developed with TMB. The absorbance of the 96-well ELISA plate at 450 nm was detected by an ELISA reader. The OD₄₅₀ value was fitted using a four-parameter model to calculate the EC₅₀ value of each antibody binding to PD-1.
The binding activity of the trispecific antibodies to VEGFA protein was detected by ELISA method as described in Section 2.1. The used human VEGF165-his protein was purchased from Acro, Catalog No.: VE5-H5248.

[2] = target: T2, human PD-1 protein (Acro, Catalog No. PD1-H5221) (human, UniProt Q15116 25-167); test: ELISA, plate coated with human PD-1 protein
T2 construct: Bought protein; also called human PD1-his; not shown: his tag
T2 sequence (Q15116 25-167 limits assumed): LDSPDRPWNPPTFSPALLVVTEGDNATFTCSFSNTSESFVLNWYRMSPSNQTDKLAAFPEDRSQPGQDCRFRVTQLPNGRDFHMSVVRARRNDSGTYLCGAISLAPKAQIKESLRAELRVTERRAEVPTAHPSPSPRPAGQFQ

[3] = target: T3, human CTLA-4 protein (Acro, Catalog No. CT4-H52H9) (human, UniProt P16410 36-161); test: ELISA, plate coated with human CTLA-4 protein
T3 construct: Bought protein
T3 sequence (P16410 36-161 limits assumed): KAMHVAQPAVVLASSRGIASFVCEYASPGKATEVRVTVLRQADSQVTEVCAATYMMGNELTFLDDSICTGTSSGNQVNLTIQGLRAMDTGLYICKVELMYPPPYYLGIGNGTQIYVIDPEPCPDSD

[4] = target: T4, human PD-1 on the cell surface (human, UniProt Q15116 25-288); test: flow cytometry, 293T-hPD-1 cells, batch FACS#1
T4 construct: whole, on cells; also called cell surface PD-1
T4 sequence (Q15116 25-288): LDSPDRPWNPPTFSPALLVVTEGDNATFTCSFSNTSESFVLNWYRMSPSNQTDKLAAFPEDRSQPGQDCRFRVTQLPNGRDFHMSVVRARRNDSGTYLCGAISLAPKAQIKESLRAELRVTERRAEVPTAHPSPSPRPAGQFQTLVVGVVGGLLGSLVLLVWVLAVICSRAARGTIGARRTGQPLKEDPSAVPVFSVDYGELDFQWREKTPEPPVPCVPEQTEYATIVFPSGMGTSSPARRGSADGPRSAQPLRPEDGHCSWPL
Experimental: After centrifugation at 300 g for 5 minutes, the supernatant was discarded. The antibodies were serially diluted 3-fold with FACS buffer to obtain two gradient series solution FACS #1 and FACS #2, with the starting concentration of 200 nM (Table 5, FACS #1) or 100 nM (Table 5, FACS #2, FIG. 2), respectively. Then 100 μL/well was added to a 96-well plate in triplicate, mixed, and incubated at 4° C. for 60 min. The plate was centrifuged and washed three times with FACS buffer. 100 μL/well of 1:800 diluted AF647-anti-hIgG(H+L) (Jackson, Catalog No.: 109-605-003) was added and incubated at 4° C. for 50 minutes. After washing the plate three times with FACS buffer, 100 μL/well of FACS buffer was added to resuspend the cells, and the fluorescence signal was detected on a flow cytometer (BECKMAN COULTER cytoFLEX). The binding activity was fitted using a four-parameter model to calculate the EC₅₀ value of each antibody binding to PD-1.

[5] = target: T5, human CTLA-4 on the cell surface (human, UniProt P16410 36-223); test: flow cytometry, CHO-hCTLA-4 cells, batch FACS#3
T5 construct: whole, on cells; also called CHO-hCTLA-4 cells; CHOK1-hCTLA4 cells
T5 sequence (P16410 36-223): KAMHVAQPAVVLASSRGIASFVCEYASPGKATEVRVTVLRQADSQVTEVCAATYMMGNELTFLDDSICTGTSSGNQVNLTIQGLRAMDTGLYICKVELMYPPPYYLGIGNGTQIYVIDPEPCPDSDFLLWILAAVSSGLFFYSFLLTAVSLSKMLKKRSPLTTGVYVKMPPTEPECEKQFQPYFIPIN

[6] = target: T4, human PD-1 on the cell surface; test: flow cytometry competition, 293T-hPD-1 cells, biotin-human PD-L1
[7] = target: T6, hPD1-mFc (Acro, Catalog No. PD1-H5255) (human, UniProt Q15116 25-167); test: flow cytometry: antibody titrated on CHOK1-hCTLA4 cells, then mixture of hPD1-mFc and biotin-hVEGF165; AF647 anti-mIgG signal
T6 construct: Bought protein; also called human PD-1 mouse Fc fusion; not shown: mouse Fc (mFc)
T6 sequence (Q15116 25-167 limits assumed): as the sequence (Q15116 25-167 limits assumed) above
Experimental: (§1) CHOK1-hCTLA4 cells were obtained by trypsin digestion, washed twice with PBS containing 2% FBS (FACS buffer), and the cell density was adjusted to about 8×10⁵ cells/ml. 200 μL/well of the cells were added to a 96-well U-bottom plate. After centrifugation at 300 g for 5 minutes, the supernatant was discarded and 100 μL of antibody solution serially diluted with FACS buffer was added in triplicate (with starting concentration of 200 nM, 3-fold serial dilution, and the same volume of FACS buffer was used as a negative control). Mixed well and incubated at 4° C. for 60 min. After washing the plate three times with FACS buffer, a mixture consisting of 1 μg/mL hPD1-mFc (Acro, Catalog No.: PD1-H5255) and 1 μg/mL Biotin-hVEGF165 in a 1:1 volume ratio was added to each well at 100 μL/well to detect the simultaneously binding activity of the trispecific antibodies to VEGF and PD-1 after binding to cell surface CTLA-4. […] After washing the plate three times with FACS buffer, 100 μL/well of PBS solution was added to resuspend the cells, and the fluorescence signal was detected on a flow cytometer. The binding activity was fitted using a four-parameter model, and the EC₅₀ value of each antibody was calculated.

[8] = target: T7, Biotinylated Human VEGF165 (Acro, Catalog No. VE5-H82Q0) (human, UniProt P15692-4 27-191, biotinylated (site not stated)); test: flow cytometry: antibody titrated on CHOK1-hCTLA4 cells, then mixture of hPD1-mFc and biotin-hVEGF165; PE streptavidin signal
T7 construct: Bought protein; also called Biotinylated-hVEGF165; Biotin-hVEGF165
T7 sequence (P15692 other isoform, or with tags, fused parts or gaps limits assumed): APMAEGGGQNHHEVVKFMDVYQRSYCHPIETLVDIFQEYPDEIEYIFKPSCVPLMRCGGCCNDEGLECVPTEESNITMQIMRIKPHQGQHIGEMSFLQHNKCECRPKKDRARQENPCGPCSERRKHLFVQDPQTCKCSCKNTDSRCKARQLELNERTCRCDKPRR
Experimental: as §1

T1 sequence (P15692 other isoform, or with tags, fused parts or gaps limits assumed): as above

Row | EC50 [1] | EC50 [2] | EC50 [3] | EC50 [4] | EC50 [5] | IC50 [6] | EC50 [7] | EC50 [8] | Binder
1 | 0.111 nM | 0.082 nM | 0.031 nM | 3.53 nM | 2.8 nM | 5 nM | 1.53 nM | 1.38 nM | HC010-F9 (trispecific antibody, human IgG4 S228P, kappa, light: CQ1-3/1-11 VL-kappa; also called H010-F9) heavy: not shown light: DIQMTQSPSSLSASVGDRVTITCRASESVDNYGISFMNWYQQKPGKAPKLLIYAASNQGSGVPSRFSGSGSGTDFTLTISSLQPEDFATYYCQQSKEVPWTFGGGTKVEIKRTVAAPSVFIFPPSDEQLKSGTASVVCLLNNFYPREAKVQWKVDNALQSGNSQESVTEQDSKDSTYSLSSTLTLSKADYEKHKVYACEVTHQGLSSPVTKSFNRGEC
2 | 0.121 nM | 0.093 nM | 0.093 nM | 5.77 nM | 6.19 nM | 4.5 nM | 2.73 nM | 1.37 nM | HC010-F10 (trispecific antibody, human IgG4 S228P, kappa, light: CQ1-3/1-11 VL-kappa; also called H010-F10) heavy: not shown light: DIQMTQSPSSLSASVGDRVTITCRASESVDNYGISFMNWYQQKPGKAPKLLIYAASNQGSGVPSRFSGSGSGTDFTLTISSLQPEDFATYYCQQSKEVPWTFGGGTKVEIKRTVAAPSVFIFPPSDEQLKSGTASVVCLLNNFYPREAKVQWKVDNALQSGNSQESVTEQDSKDSTYSLSSTLTLSKADYEKHKVYACEVTHQGLSSPVTKSFNRGEC
